Experimental findings from paper PMC5435981 are described below.

This data set addresses APOBEC3A E72A (A3A-E72A) (Homo sapiens, UniProt P31941 1-199, E72A). Nature of the data set: ITC. (In general: ITC needs no label: the signal is the heat of the interaction.)

As usually defined, the Kd is a measure of binding affinity in units of concentration.

APOBEC3A E72A (A3A-E72A), sequence (P31941 whole entry E72A): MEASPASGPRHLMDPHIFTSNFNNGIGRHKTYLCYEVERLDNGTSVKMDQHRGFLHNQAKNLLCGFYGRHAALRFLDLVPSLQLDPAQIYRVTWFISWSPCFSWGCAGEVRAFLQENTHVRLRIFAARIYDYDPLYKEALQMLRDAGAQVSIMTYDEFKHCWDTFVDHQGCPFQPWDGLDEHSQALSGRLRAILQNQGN

B1: A2TTCA4 (ssDNA)
DNA: AATTCAAAA
B1: the Kd came to 17 ± 6 µM.
